The series in a line: yeast display, Sf9 membrane polyspecificity reagent, FACS + sequencing; frameworks hold sequencing errors. The procedure, abridged:
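Polyreactivity labels are assigned by the sorting gate from which each nanobody was recovered. The gates were low and high (top ~1%), set on anti-HA fluorescence for expression and streptavidin fluorescence for reagent binding. Before sorting, galactose-induced (36–48 hours) yeast display cells were stained for 1 hour at 4 °C with 10% biotinylated, detergent-solubilized Sf9 membrane reagent.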
With “QVQLVESGGGLVQAGGSLRLSCAASGRTIGSNVMGWYRQAPGKERELVAAITYSGVSTYADSVKGRFTISRDNAKNTVYLQINSLKPEDTAVYYCNAYPTTYYQQYDYWGQGTQVTVSS”, the “polyreactivity (PSR sort gate)” value is “low polyreactivity”.

In the case of “QVQLVESGGGLVQAGGSLRLSCAASGRTIIVYAMGWYRQAPGKERELVASITGIGDRTYYADSVKGRFTISRDNAKNTVYLQMNSLKPEDTAVYYCAKYGRTRFYYWGQGTQVTVSS”, the “polyreactivity (PSR sort gate)” value is given as “high polyreactivity”.

As to “QVQLVESGGGLVQAGGSLRLSCAASGRTILHYAMGWYSQAPGKERELVASISSGVSTHYADSVKGRFTISRDNAKNTVYLQMNSLIPEDTAVYDCAARPYRIGRYGYDYDYWGQGTQVTVSS”, the “polyreactivity (PSR sort gate)” value is on record as “high polyreactivity”.

As for “QVQLVESGGGLVQAGGSLRLSCAASGRTIQWYAMGWYRQAPGKERELVAGISFSGGSTYYADSVKGRFTISRDNAKNTVYLQMNSLKPEDTAVYYCNAQGYTTYRGDYWGQGTQVTVSS”, the “polyreactivity (PSR sort gate)” value was “high polyreactivity”.

For “QVQLVESGGGLVQAGGSLRLSCAASGRTIRGNAMGWYRQAPGKERELVAAIRWNGGSTYYADSVKGRFTISRDNAKNTVYLQMNSLKPEDSAVSYCAVSYWYSRYDYWGQGTQVTVSS”, the “polyreactivity (PSR sort gate)” value is reported as “high polyreactivity”.

For the sequence “QVQLVESGGGLVQAGGSLRLSCAASGRTIRRYAMGWYRQAPGKERELVAAITISGGSTYYADSVKGRFTISRDNAKNTVYLQMNSLKPEDTAVYYCAAQPWRALGYYYWGQGTQVTVSS”, the “polyreactivity (PSR sort gate)” value is reported as “high polyreactivity”.

Take “QVQLVESGGGLVQAGGSLRLSCAASGRTIRVNAMGWYRQAPRKERELVAAISRSTGDTYYADSVKGRFTNSRDNAKNTVYLQMHSLKPEDTAVYYCAADVPGGEGDYAYEYWGQGTQVNVSS”: the “polyreactivity (PSR sort gate)” value is “low polyreactivity”.

Regarding “QVQLVESGGGLVQAGGSLRLSCAASGRTIRWNAMGWYRQAPGKERELVAAITSRGGSTYYADSVKGRFTISRDNAKNTVYLQMISLKPEDTAVSYCAKQPKPPPVTGYDYSGQGTQVTVSS”, the “polyreactivity (PSR sort gate)” value is “high polyreactivity”.

As for “QVQLVESGGGLVQAGGSLRLSCAASGRTIRYNAMGWYRHAPGKERELVAAITGSGGSTYYADSVKGRFTISRDNAKNTVYLQMNSLKPEDTAAYSCNAVGIWFPIRLIVPYDYWGQGTQVTVSS”, the “polyreactivity (PSR sort gate)” value is on record as “low polyreactivity”.

For the sequence “QVQLVESGGGLVQAGGSLRLSCAASGRTIRYYSMGWYRQAPGKESELVAAINYSGGRTYYADSVKGRFTISRDNSMNTVYLQLNSLKPEDTAVYYCNAVLGPYFPKFDYWGQGTQVTVSS”, the “polyreactivity (PSR sort gate)” value is recorded as “high polyreactivity”.

On to “QVQLVESGGGLVQAGGSLRLSCAASGRTIRYYVMGWYRQAPGKERELVAAISSGGRTNYADSVKGRFTISRDNAKNTVYLQMNSLKPEDTAVYYCAADLWYYWTATRAFDYWGQGTQVTVSS”, for which the “polyreactivity (PSR sort gate)” value was “high polyreactivity”.

For “QVQLVESGGGLVQAGGSLRLSCAASGRTISWYAMGRYRQAPGKERELVAAITYSGGSTYYAVSVKGRFTISRDNAKNTVYLQMNSLKPEDTAVYYCAADGRVREYDYWGQGTQVTVSS”, the “polyreactivity (PSR sort gate)” value is listed as “high polyreactivity”.

For the sequence “QVQLVESGGGLVQAGGSLRLSCAASGRTITWYAMGWYRQAPGTERELVAAITRTGRTTYADSVKGRFTISRDNAKNTVYLQMNSLKPEDTAVYYCAARRWGEYDYWGQGTQVTVSS”, the “polyreactivity (PSR sort gate)” value is given as “high polyreactivity”.

As to “QVQLVESGGGLVQAGGSLRLSCAASGRTIVFNAMGWYRQAPGKERELVAAITKNGGSTYYADSVKGRFTISRDNAKNTVYLQMNSLKPEDTAVYYCAVRRGYPFFYWGQGTQVTVSS”, the “polyreactivity (PSR sort gate)” value is on record as “low polyreactivity”.

As for “QVQLVESGGGLVQAGGSLRLSCAASGRTIYFNVMGWYRQAPGKERELVAAISGGGSTNYADSVKGRYTISRDNAKNTVYLQMNSLKPEDTAVYYCATGYYSGLIDDYWGQGTQVTVSS”, the “polyreactivity (PSR sort gate)” value was “low polyreactivity”.

With “QVQLVESGGGLVQAGGSLRLSCAASGRTIYFYTMGWYRQAPGKERELVATAITSGGCTNYAVSVKGRFTISRDNAKNTVHLLMNSRKPEDTAVYYCAAVPTEFGNRLEYDYWGQGTQVTVSS”, the “polyreactivity (PSR sort gate)” value is given as “low polyreactivity”.

Turning to “QVQLVESGGGLVQAGGSLRLSCAASGRTIYQYAMGWYRQAPGKERELVAAISRGGSTNYADSLKGRFTISRDNAKNTVFLQMHSLKPEDTAVYYCASWYKFLSLKRLYERDYWGQGTQVTVSS”, the “polyreactivity (PSR sort gate)” value is “high polyreactivity”.

With “QVQLVESGGGLVQAGGSLRLSCAASGRTKQRKAMGWYRQAPGKERELVAAISSSGGSTYYADSVKGRFTISRDNAKNTVYLQMNSLKPEDTAVYYCAADGQFDDYYSLPFYYDYWGQGTHVTVSS”, the “polyreactivity (PSR sort gate)” value is on record as “high polyreactivity”.

Take “QVQLVESGGGLVQAGGSLRLSCAASGRTLARNAMGWYRQAPGKERELVASINGRTTRTYYADSVKGRFTISRDNAKNTVYLQMNSLKPEDTAVYYCAADPPGYVYGKRYYWGQGTQVTVSS”: the “polyreactivity (PSR sort gate)” value is on record as “high polyreactivity”.

Take “QVQLVESGGGLVQAGGSLRLSCAASGRTLASNAMGWYRQAPGKERELVAAINRGGSTYYADSVKGRFTISRDNAKNTVYLQMNSLKPEDTAVYYCRFYSYWSWLGREYDYWGQGTQVTVSS”: the “polyreactivity (PSR sort gate)” value is “low polyreactivity”.

On to “QVQLVESGGGLVQAGGSLRLSCAASGRTLDWNAMGWYRPAPGKERELVAAISWSGDSTYYADSVKGRFTISRDNAKNTVYLQMNSLKPEDTAVYYCAAAGVYYGVRGTTYAFDYWGQGTQVTVSS”, for which the “polyreactivity (PSR sort gate)” value is on record as “low polyreactivity”.

With “QVQLVESGGGLVQAGGSLRLSCAASGRTLEDYVMGWYRQAPGKERELVAAIYWSGVSTYYADSVKGRFTISRDNAKNTVYLQMNSMKPEDTAVYYCAKDSTADELTGFDYWGQGTQVTVSS”, the “polyreactivity (PSR sort gate)” value is recorded as “low polyreactivity”.

Regarding “QVQLVESGGGLVQAGGSLRLSCAASGRTLEIYTMGLNRQAPGKERELVAAISGGSTYYADSVKGRFTISRDNSKNTVYLQMNSLKPEDTAVYYCAARPYVFRYHRWTVDWRYDYWGQGTQVTVSS”, the “polyreactivity (PSR sort gate)” value is “low polyreactivity”.

Turning to “QVQLVESGGGLVQAGGSLRLSCAASGRTLEQYAMGWYRQAPGKERELVAAINKSGARTYYADSVKGRFTISRDNAKNSVYLQMNSQKPEDTAVYYCNTVGPSYLFDYWGQGTQVTVSS”, the “polyreactivity (PSR sort gate)” value is “high polyreactivity”.

“QVQLVESGGGLVQAGGSLRLSCAASGRTLFRYAMGWYRQAPGKERELVAAISRSGGTTYYADSVKGRFTISRDNAKNTVYLQMNSLKPEDTAVYYCAARGRYKDGYRMDYWGQGTQVTVSS”: the “polyreactivity (PSR sort gate)” value is on record as “high polyreactivity”.

Regarding “QVQLVESGGGLVQAGGSLRLSCAASGRTLFVYAMGWYRQAPGKEREFVAAIRWRGGSTYYADSVKGRFTISRDNAKNTVYLQMNSLKPEDTAVYYCAADTYWVKTDYLYGYWGQGTQVTVSS”, the “polyreactivity (PSR sort gate)” value is on record as “high polyreactivity”.

On to “QVQLVESGGGLVQAGGSLRLSCAASGRTLGIYAMGWYIQAPGKERELVADISRDSSTYYADSVKGRFTISRDNAKNTVYLQMNSLKPEDTAVYYCNADQTPRDVTDWWYDYDYWGQGTQVTVSS”, for which the “polyreactivity (PSR sort gate)” value was “low polyreactivity”.

In the case of “QVQLVESGGGLVQAGGSLRLSCAASGRTLGTNAMGWYRQARGKERELVAAISRTGTSTYYADSVKGRFTISRDNAKNTVYLQMNSLKPEDTAVYYCAVRVPVSIPPGNYYYWGQGTQVTVSS”, the “polyreactivity (PSR sort gate)” value was “high polyreactivity”.

“QVQLVESGGGLVQAGGSLRLSCAASGRTLGTYAMGWYRQAPGKERELVAAITSGGSTYYADSVKGRFTISRDNAKNTVYLQMNSLKPEDTAVYYRATYSYYYWGQGTQVTVSS”: the “polyreactivity (PSR sort gate)” value is reported as “low polyreactivity”.

Consider “QVQLVESGGGLVQAGGSLRLSCAASGRTLIAYAMGWYRQAPGKEREFVAAIRADDGRTYYADSVKGRFTISRDNAKNTVYLQMNSLKPEDTAVYYCATKADKRYGFGYWGQGTQVTVSS”, for which the “polyreactivity (PSR sort gate)” value is given as “high polyreactivity”.

For the sequence “QVQLVESGGGLVQAGGSLRLSCAASGRTLIAYAMGWYRQAPGKEREFVAAIRADDGRTYYADSVKGRFTISRDNAMNTVYLQMNSLKPDDTAVYYCATKADKRYRFGYWGQGTQVTVSS”, the “polyreactivity (PSR sort gate)” value is “high polyreactivity”.

As to “QVQLVESGGGLVQAGGSLRLSCAASGRTLKYNAMGWYRQAPGKERELVAAISYSGSSTYYADSVKGRFTISRDNAKNTVYLQMNSLKPEDTAVYYCNTARPTAAYDYWGQGTQVTVSS”, the “polyreactivity (PSR sort gate)” value is recorded as “low polyreactivity”.

With “QVQLVESGGGLVQAGGSLRLSCAASGRTLLKYAMGWYRQATGKEREFVAAITRSGSSTYYADSVKGRFTISRDNAKNTVYLQMNSLKPEDTAVYYCAARLYRVTLDYWGQGTQVTVSS”, the “polyreactivity (PSR sort gate)” value is “low polyreactivity”.

Turning to “QVQLVESGGGLVQAGGSLRLSCAASGRTLLLNTMGWYRQAPGKERELFAAISWRDGSTYYADSVKRRFTISRDNAKITVYLQMNSLIPEDTAVYYCNARLSGRSPYDLRFDYWGQGTQVTVSS”, the “polyreactivity (PSR sort gate)” value is recorded as “low polyreactivity”.

As to “QVQLVESGGGLVQAGGSLRLSCAASGRTLLPNALGWYRQAPGKERELVASIRDGGDTNYADSVKGRFTISRDNAKKTVYLQMNSLQPEDTGVYYCNADWWAYYSFGHEYWGLGTQVTVSS”, the “polyreactivity (PSR sort gate)” value was “low polyreactivity”.

In the case of “QVQLVESGGGLVQAGGSLRLSCAASGRTLQIYVMGWYRQAPGKERELVASITGRGGSTYYADSVKGRFTISRDNAKNTVYLQMNSLKPEDTAVYYCARRYYRLDYWGQGTQVTVSS”, the “polyreactivity (PSR sort gate)” value is “high polyreactivity”.

As for “QVQLVESGGGLVQAGGSLRLSCAASGRTLRKYAMGWYRQAPGKERELVAAITTSGGSTYYADSVKGRFTISRDNAKNTVYLQMNSLKPEDTAVYYCNAARYYAYIGDYWGQGTQVTVSS”, the “polyreactivity (PSR sort gate)” value was “high polyreactivity”.

As to “QVQLVESGGGLVQAGGSLRLSCAASGRTLRLNAMGWYRQAPGKQREFVDAISRSGDSTYYADSVKGRFTISRDNAKNTVYLQMNSLKPEDTAVYYCNAKYYRYPCAYRYDYWGQGTQVTVSS”, the “polyreactivity (PSR sort gate)” value is on record as “high polyreactivity”.

With “QVQLVESGGGLVQAGGSLRLSCAASGRTLRQYAMGRYRQAPGKERELVAAISRGGSTTYADSVKGRFTISRDNAKNTVYLQMNSLKPEDTAVYYCNAELNWYYYIHLDYWGQGTQVTVSS”, the “polyreactivity (PSR sort gate)” value is recorded as “low polyreactivity”.

Take “QVQLVESGGGLVQAGGSLRLSCAASGRTLRSYTMGWYRQAPGKERELVAAINWNGGTTYYADSVKGRFTISRDNAKNTVYLQMNSLKAEDTAVYYCAAESSRWHTYWYSLSNLGRGYWGQGTQVTVSS”: the “polyreactivity (PSR sort gate)” value was “high polyreactivity”.

In the case of “QVQLVESGGGLVQAGGSLRLSCAASGRTLRTYTMGWYRQAPGKERELVAAISSSDDSTYYADSVKGRFTISRDNAKNTVYLQMNSLKPEDTAVYYCAKDGLYPTEYGYWGQGTQVTVSS”, the “polyreactivity (PSR sort gate)” value is on record as “high polyreactivity”.
